Test results as given in patent publication US20150203577A1 (Chugai, published 2015).
Numbering of substitutions follows the chain as printed.

T1: mouse FcγRIII (mouse, UniProt P08508 31-215)
T1 construct: also called mFcγRIII; mFcgRIII
T1 chain: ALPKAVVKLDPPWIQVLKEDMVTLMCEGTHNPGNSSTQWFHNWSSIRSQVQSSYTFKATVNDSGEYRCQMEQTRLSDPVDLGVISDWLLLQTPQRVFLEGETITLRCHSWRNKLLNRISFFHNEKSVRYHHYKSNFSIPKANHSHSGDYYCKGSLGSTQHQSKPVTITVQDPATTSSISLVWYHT

T2: mouse FcγRII (mouse, UniProt P08101 30-210)
T2 construct: also called mFcγRII; mFcgRII
T2 sequence: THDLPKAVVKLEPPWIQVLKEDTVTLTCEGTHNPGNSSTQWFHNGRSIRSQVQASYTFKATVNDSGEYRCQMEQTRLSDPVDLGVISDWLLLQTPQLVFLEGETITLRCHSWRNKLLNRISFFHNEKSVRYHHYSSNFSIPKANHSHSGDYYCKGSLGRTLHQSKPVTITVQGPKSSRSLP

T3: mouse FcγRIII extracellular domain, C-terminal His tag (mouse, UniProt P08508 31-215)
T3 construct: Whole entry named; also called mFcγRIII; mFcgRIII
T3 chain: T1 chain

T4: mouse FcγRII extracellular domain, C-terminal His tag (mouse, UniProt P08101 30-210)
T4 construct: Whole entry named; also called mFcγRII; mFcgRII
T4 sequence: T2 sequence

T5: mouse FcγRII extracellular domain, C-terminally His-tagged (mouse, UniProt P08101 30-210)
T5 construct: the whole entry is named; also called mFcγRII; mFcgRII
T5 sequence: T2 sequence

T6: mouse FcγRIII extracellular domain, C-terminally His-tagged (mouse, UniProt P08508 31-215)
T6 construct: the whole entry is named; also called mFcγRIII; mFcgRIII
T6 chain: T1 chain

B1: FS134 (antibody, human IgG1, kappa)
heavy: QVQLQESGPGLVKPSETLSLTCAVSGHSISHDHAWSWVRQPPGEGLEWIGFISYSGITNYNPSLQGRVTISRDNSKNTLYLQMNSLRAEDTAVYYCARSLARTTAMDYWGEGTLVTVSSASTKGPSVFPLAPSSKSTSGGTAALGCLVKDYFPEPVTVSWNSGALTSGVHTFPAVLQSSGLYSLSSVVTVPSSSLGTQTYICNVNHKPSNTKVDKKVEPKSCDKTHTCPPCPAPELLGGPDVFLFPPKPKDTLMISRTPEVTCVVVDVSDEDPEVKFNWYVDGVEVHNAKTKPREEQYNSTYRVVSVLTVLHQDWLNGKEYKCKVSNKAYPAPIEKTISKAKGQPREPQVYTLPPSRDELTKNQVSLTCLVKGFYPSDIAVEWESNGQPENNYKTTPPVLDSDGSFFLYSKLTVDKSRWQQGNVFSCSVMHEALHNHYTQKSLSLSPGK
light: not shown
notes: human IgG1 constant region variant; copies: 2 + 2
B2: H237-MB875/MRAL-k0 (antibody, mouse IgG1, kappa)
heavy: QVQLQESGPGLVKPSETLSLTCAVSGHSISHDHAWSWVRQPPGEGLEWIGFISYSGITNYNPSLQGRVTISRDNSKNTLYLQMNSLRAEDTAVYYCARSLARTTAMDYWGEGTLVTVSSAKTTPPSVYPLAPGSAAQTNSMVTLGCLVKGYFPEPVTVTWNSGSLSSGVHTFPAVLQSDLYTLSSSVTVPSSTWPSETVTCNVAHPASSTKVDKKIVPRDCGCKPCICEPNEVEIVFIFPPKPKDVLTITLTPKVTCVVVDISDDDPEVQFSWFVDDVEVHTAQTQPREELFNSTFRSVSELPIMHQDWLNGKEFKCRVDSDGFPAPIEKTISKTKGRPKAPQVYTIPPPKEQMAKDKVSLTCMITDFFPEDITVEWQWNGQPAENYKNTQPIMDTDGSYFVYSKLNVQKSNWEAGNTFTCSVLHEGLHNHHTEKSLSHSPGK
light: not shown
notes: copies: 2 + 2
B3: H237-MB877/MRAL-k0 (antibody, mouse IgG1, kappa)
heavy: B2 heavy with L291Q, K330R
light: not shown
notes: copies: 2 + 2
B4: H237-MB871/MRAL-k0 (antibody, mouse IgG1, kappa)
heavy: B2 heavy with D320N
light: not shown
notes: copies: 2 + 2
B5: H237-MB869/MRAL-k0 (antibody, mouse IgG1, kappa)
heavy: B2 heavy with L291Q, D320N, E329Y
light: not shown
notes: copies: 2 + 2
B6: H237-MB870/MRAL-k0 (antibody, mouse IgG1, kappa)
heavy: B2 heavy with L291Q, D320N, K330R
light: not shown
notes: copies: 2 + 2
B7: H237-MB876/MRAL-k0 (antibody, mouse IgG1, kappa)
heavy: B2 heavy with D320N, E329Y
light: not shown
notes: copies: 2 + 2
B8: H237-MB706/MRAL-k0 (antibody, mouse IgG1, kappa)
heavy: B2 heavy with N231A, I235V, D264K, L291Q, D320N, D322A, G323A
light: not shown
notes: copies: 2 + 2
B9: H237-MB711/MRAL-k0 (antibody, mouse IgG1, kappa)
heavy: B2 heavy with N231A, I235R, D264K, L291Q, D320N, D322A, G323A
light: not shown
notes: copies: 2 + 2
B10: H237-MB712/MRAL-k0 (antibody, mouse IgG1, kappa)
heavy: B2 heavy with N231A, I235H, D264K, L291Q, D320N, D322A, G323A
light: not shown
notes: copies: 2 + 2
B11: H237-MB707/MRAL-k0 (antibody, mouse IgG1, kappa)
heavy: B2 heavy with N231A, D264K, L291Q, D320N, D322A, G323A
light: not shown
notes: copies: 2 + 2
B12: H237-MB792/MRAL-k0 (antibody, mouse IgG1, kappa)
heavy: B2 heavy with E229Q, I235V, D264K, L291Q, D320N, D322A, G323A
light: not shown
notes: copies: 2 + 2
B13: H237-MB721/MRAL-k0 (antibody, mouse IgG1, kappa)
heavy: B2 heavy with I235H, D264K, L291Q, D320N, D322A, G323A
light: not shown
notes: copies: 2 + 2
B14: H237-MB720/MRAL-k0 (antibody, mouse IgG1, kappa)
heavy: B2 heavy with I235R, D264K, L291Q, D320N, D322A, G323A
light: not shown
notes: copies: 2 + 2
B15: H237-MB886/MRAL-k0 (antibody, mouse IgG1, kappa)
heavy: B2 heavy with V233E, I235S, D264K, L291Q, D320N, D322A, G323A
light: not shown
notes: copies: 2 + 2
B16: H237-MB883/MRAL-k0 (antibody, mouse IgG1, kappa)
heavy: B2 heavy with N231A, V233E, E234S, I235L, D264K, L291Q, D320N, D322A, G323A
light: not shown
notes: copies: 2 + 2
B17: H237-MB885/MRAL-k0 (antibody, mouse IgG1, kappa)
heavy: B2 heavy with N231A, V233E, I235S, D264K, L291Q, D320N, D322A, G323A
light: not shown
notes: copies: 2 + 2
B18: H237-MB884/MRAL-k0 (antibody, mouse IgG1, kappa)
heavy: B2 heavy with V233E, E234S, I235L, D264K, L291Q, D320N, D322A, G323A
light: not shown
notes: copies: 2 + 2
B19: H237-MB878/MRAL-k0 (antibody, mouse IgG1, kappa)
heavy: B2 heavy with E229T, N231A, V233E, I235L, D264K, L291Q, D320N, D322A, G323A
light: not shown
notes: copies: 2 + 2

Target: T1, mouse FcγRIII
Test: SPR Biacore T200, KD ratio
Experimental: (§1) The antibody L chain commonly used was the L chain MRAL-k0 (SEQ ID NO: 2) of the anti-IL-6 receptor antibody tocilizumab. The antibody H chain constant region used was each of the aforementioned 8 Fc variants prepared by altering human IgG1 hIgG1 (SEQ ID NO: 3) as a template.
(§2) Each altered antibody was analyzed for its interaction with each Fcγ receptor prepared above using Biacore T100 (GE Healthcare Japan Corp.), Biacore T200 (GE Healthcare Japan Corp.), Biacore A100, or Biacore 4000. The running buffer used was HBS-EP+ (GE Healthcare Japan Corp.). The assay temperature was set to 25° C. The sensor chips used were chips prepared by immobilizing Protein L (ACTIGEN or BioVision) onto Series S Sensor Chip CM5 (GE Healthcare Japan Corp.) or Series S Sensor Chip CM4 (GE Healthcare Japan Corp.) by the amine coupling method.
(§3) In order to calculate the KD value of each altered antibody for FcγR, kinetic analysis was conducted according to the following method: first, the antibody of interest was captured onto any of these chips and allowed to interact with mFcγR diluted with a running buffer. For the obtained sensorgram, the assay results were globally fit into the 1:1 Langmuir binding model using Biacore Evaluation Software to calculate an association rate constant ka (L/mol/s) and a dissociation rate constant kd (1/s). From these values, the dissociation constant KD (mol/L) was calculated.

| Binder | relative mFcγRIII-binding activity (mIgG1 = 1) [fold] |
| --- | --- |
| B1 | 20.8 |

Target: T2, mouse FcγRII
Test: SPR Biacore T200, KD ratio
Experimental: as §1, §2, §3

| Binder | relative mFcγRII-binding activity (mIgG1 = 1) [fold] |
| --- | --- |
| B1 | 58.2 |

Target: T3, mouse FcγRIII extracellular domain, …
Test: SPR (Biacore T200); KD of H237-MB716/MRAL-k0 / KD of variant
Excerpt: (§4) The antibody H chain variable region used was the variable region H237 (SEQ ID NO: 1) of the H chain VH3-IgG1 of the anti-IL-6 receptor antibody Fv4-IgG1 described in WO2009/125825. The antibody L chain commonly used was the L chain MRAL-k0 (SEQ ID NO: 2) of the anti-IL-6 receptor antibody tocilizumab. H237-MB716/MRAL-k0 was used as a template to introduce the alterations. These variants were expressed and purified by the method of Reference Example 1 and evaluated for their binding to mFcγRII and mFcγRIII by the method of Reference Example 2 using Biacore T200.
as §2

| Binder | relative mFcγRIII-binding activity (MB716 = 1) [fold] |
| --- | --- |
| B2 | 32.3 |
| B3 | 24.4 |
| B4 | 28.2 |
| B5 | 15.8 |
| B6 | 17.6 |
| B7 | 24.9 |

Target: T4, mouse FcγRII extracellular domain, …
Test: as above
Excerpt: as §4, §2

| Binder | relative mFcγRII-binding activity (MB716 = 1) [fold] |
| --- | --- |
| B2 | 16.8 |
| B3 | 12.7 |
| B4 | 14.2 |
| B5 | 9.4 |
| B6 | 8.9 |
| B7 | 13.5 |

Target: T5, mouse FcγRII extracellular domain, …
Test: SPR Biacore T200, KD ratio
Experimental: as §2, §3

| Binder | relative mFcγRII-binding activity (mIgG1 = 1) [fold] |
| --- | --- |
| B8 | 0.23 |
| B9 | 0.05 |
| B10 | 0.16 |
| B11 | 0.37 |
| B12 | 0.31 |
| B13 | 0.3 |
| B14 | 0.08 |

Target: T3, mouse FcγRIII extracellular domain, …
Test: SPR (Biacore T200); KD of H237-mIgG1/MRAL-k0 / KD of variant
Excerpt: as §4, §2

| Binder | relative mFcγRIII-binding activity (mIgG1 = 1) [fold] |
| --- | --- |
| B2 | 1.92 |
| B3 | 1.45 |
| B4 | 1.67 |
| B5 | 0.94 |
| B6 | 1.05 |
| B7 | 1.48 |

Target: T4, mouse FcγRII extracellular domain, …
Test: as above
Excerpt: as §4, §2

| Binder | relative mFcγRII-binding activity (mIgG1 = 1) [fold] |
| --- | --- |
| B2 | 72.8 |
| B3 | 55.3 |
| B4 | 61.8 |
| B5 | 41 |
| B6 | 38.6 |
| B7 | 58.7 |

Target: T6, mouse FcγRIII extracellular domain, …
Test: SPR Biacore T200

| Binder | binding result |
| --- | --- |
| B8 | no binding |
| B9 | no binding |
| B10 | no binding |
| B11 | no binding |
| B12 | no binding |
| B13 | no binding |
| B14 | no binding |

Target: T3, mouse FcγRIII extracellular domain, …
Test: SPR (Biacore T200); KD of H237-mIgG1/MRAL-k0 / KD of variant
Remark: another data set of the same source

| Binder | relative mFcγRIII-binding activity (mIgG1 = 1) [fold] |
| --- | --- |
| B15 | 0.08 |
| B16 | 0.11 |
| B17 | 0.13 |
| B18 | 0.09 |
| B19 | 0.03 |

Target: T4, mouse FcγRII extracellular domain, …
Test: as above
Remark: another data set of the same source

| Binder | relative mFcγRII-binding activity (mIgG1 = 1) [fold] |
| --- | --- |
| B15 | 1.47 |
| B16 | 2.21 |
| B17 | 3.29 |
| B18 | 2.46 |
| B19 | 0.47 |
